Test results taken from US20210324050A1 (published 2021).
Like-named read-outs stand apart in the source and are kept apart here.

T1: GII.4 Sydney 2012 shell (S) domain (UniProt P54635 1-221)
T1 chain: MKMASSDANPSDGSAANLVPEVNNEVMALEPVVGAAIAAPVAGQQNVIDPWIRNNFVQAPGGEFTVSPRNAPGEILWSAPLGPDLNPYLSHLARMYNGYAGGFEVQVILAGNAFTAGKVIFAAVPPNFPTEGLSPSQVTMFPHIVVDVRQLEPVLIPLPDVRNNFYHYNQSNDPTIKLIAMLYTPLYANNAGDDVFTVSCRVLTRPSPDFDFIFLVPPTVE


How the values were obtained:
GI.3 [1] = target: GI.3 (norovirus GI.3); assay: VLP-PGM blockade
GI.3 Protruding = GI.3 Protruding (norovirus GI.3); assay: ELISA
GI.3 [2] = target: GI.3 (norovirus GI.3); assay: ELISA
Protruding domain = assay: ELISA
GII.4 Sydney 2012 VLP = GII.4 Sydney 2012 VLP (UniProt P54635 1-538); assay: VLP-PGM blockade
GII.4 Houston 2002 VLP [3] = target: T2, GII.4 Houston 2002 VLP (UniProt P54635 1-539); assay: VLP blockade
GII.13 = GII.13 (norovirus GII.13); assay: ELISA
GII.17 = GII.17 (norovirus GII.17); assay: ELISA
GII.3 = GII.3 (norovirus GII.3); assay: ELISA
[4] = target: T1, GII.4 Sydney 2012 shell (S) domain; assay: ELISA
[5] = target: T3, GII.4 Houston 2002 (ABY27560.1) VLPs (UniProt P54635 1-539); assay: VLP blockade
GII.6 (AF414410) VLPs [6] = target: GII.6 (AF414410) VLPs (norovirus GII.6); assay: ELISA
[7] = target: T3, GII.4 Houston 2002 (ABY27560.1) VLPs; assay: ELISA binding
[8] = target: T1, GII.4 Sydney 2012 shell (S) domain; assay: ELISA
GII.6 (AF414410) VLPs [9] = target: GII.6 (AF414410) VLPs (norovirus GII.6); assay: VLP-PGM blockade
GII.4 Houston 2002 VLP [10] = target: T2, GII.4 Houston 2002 VLP; assay: ELISA binding

Row | Binder | EC50 (GI.3 [1]) | EC50 (GI.3 [2]) | EC50 (GII.13) | EC50 (GII.17) | EC50 (GII.3) | EC50 [8] | also measured
1 | 323A (antibody, V domains shown) VH: QVQLVESGGGVVQPGRSLRLSCAASGFTFSGSSLHWVRQAPGKGLEWVAAISYDGTNTYYADSVKGRFTLSRDNSKNTLYLQMNSLRAEDTAVYYCAKPVLSPFDYWGQGTLVTVSS VL: QSALTQPASVSGSPGQSITISCTGTSSDVGGYNYVSWYQQHPGKAPKLLIYEVSNRPSGVSRRFSGSKSGNTASLTISGLQAEDEADYYCCSYTSSSTEVFGGGTKLTVL | 15 nM | 3 nM | – | – | – | – | EC50 (GI.3 Protruding): 7 nM
2 | 246A (antibody, V domains shown) VH: EVHLVESGGGLVKPGGSLRLSCAASGFTFSRYGMHWVRQAPGKGLEWVSSIVIRSDYKYYADSVKGRFTISRDNAKNSLYLQMNSLRADDTAVYYCARDLVEPGITPVGCDYWGRGTLVTVSS VL: SNELTQAPSVSVSPGQTARITCFGDALANQYSYWYQRKPGQAPVLVIYKDSERPSGIPQRFSASNSGTTVTLTITGVQAEDEADYFCQSADSTGIYKVFGGGTKLTVL | – | – | – | – | – | – | EC50 (Protruding domain): 0.9 µg/mL; EC50 (GII.4 Sydney 2012 VLP): 7.4 µg/mL; EC50 (GII.4 Houston 2002 VLP [3]): 2.1 µg/mL
3 | 156.3 (antibody, V domains shown) VH: QVQLQQWGAGLLKPSETLSLTCAVYGGSFSGYYWSWIRQPPGKGLEWIGEINHSGSTNYNPSLKSRVTISVDTSKNQFSLKLSSVTAADTAVYYCARGLMDVWGQGTLVTVSS VL: AIRMTQSPSSFSASTGDRVTITCRASQGISSYLAWYQQKPGKAPKLLIYAASTLQSGVPSRFSGSGSGTDFTLTISCLQSEDFATYYCQQYYSYPRTFGQGTKLEIK | 678 nM | 47 nM | 54 nM | 90 nM | – | – | –
4 | 310A (antibody, V domains shown) VH: EVQLVESGGGLVRPGESLRLSCVASGFSVSDNYMSWVRQAPGKGLQWVSVIYSGGTTFYTDSVKGRFTISRDKSKNTLFLQMNSLRAEDTAVYFCTRDPSQYYDSRGHYYQTFTPSFDSWGQGTLVTVSS VL: DIQMTQSPSVMSASVGDRVTITCRASQDISDYLAWFQQKPGKVPKRLIYAASSLQNGVPSRFSGSGSGTEFTLTISSLQPEDFATYYCLQHDTYPLTFGGGTKVEIK | 192 nM | 24 nM | 53 nM | 40 nM | 15 nM | – | EC50 (GI.3 Protruding): 60 nM
5 | NORO-310A (antibody, V domains shown) VH: EVQLVESGGGLVRPGESLRLSCVASGFSVSDNYMSWVRQAPGKGLQWVSVIYSGGTTFYTDSVKGRFTISRDKSKNTLFLQMNSLRAEDTAVYFCTRDPSQYYDSRGHYYQTFTPSFDSWGQGTLVTVSS VL: DIQMTQSPSVMSASVGDRVTITCRASQDISDYLAWFQQKPGKVPKRLIYAASSLQNGVPSRFSGSGSGTEFTLTISSLQPEDFATYYCLQHDTYPLTFGGGTKVEIK | – | – | – | – | – | 19 nM | EC50 [4]: 1.8 µg/mL; EC50 [5]: > 100 µg/mL; EC50 (GII.6 (AF414410) VLPs [6]): 44 nM; EC50 [7]: 0.6 µg/mL
6 | 178.6 (antibody, V domains shown) VH: QVQLVESGGGVVQPGRSLRLSCAASGFTFSTYGMNWVRQAPGRGLEWVADISYDGSNSRYADSVKGRFTISRDNSKNTLSLQMNGLRTEDTAVYYCAKDWYLAMAGAAFDSWGPGTLVTVSS VL: SSELTQDPVVSVALGQTVRITCQGDSLTTFYASWFQQKPGQAPALVLYGNDNRPSGIPDRFSGSRSGNTASLTITGAQAEDEADYYCNSRDSSGKPSFGGGTKLTVL | 470 nM | 83 nM | 18 nM | 16 nM | 29 nM | – | EC50 (GI.3 Protruding): 336 nM
7 | NORO-178.6 (antibody, V domains shown) VH: QVQLVESGGGVVQPGRSLRLSCAASGFTFSTYGMNWVRQAPGRGLEWVADISYDGSNSRYADSVKGRFTISRDNSKNTLSLQMNGLRTEDTAVYYCAKDWYLAMAGAAFDSWGPGTLVTVSS VL: SSELTQDPVVSVALGQTVRITCQGDSLTTFYASWFQQKPGQAPALVLYGNDNRPSGIPDRFSGSRSGNTASLTITGAQAEDEADYYCNSRDSSGKPSFGGGTKLTVL | – | – | – | – | – | 8 nM | EC50 (GII.6 (AF414410) VLPs [6]): 20 nM
8 | 279A (antibody, V domains shown) VH: QVQLVESGGGVVQPGRSLRLSCAASGFTFTKYGMHWVRQAPGKGLEWVAFIAYDGSVKYYGDSAKGRFAISRDNPKNTVYLQMNSLRAEDTAVYYCAKVEIHYYSNSLLGMDVWGQGTLVTVSS VL: QSVLTQPPSASGTPGQRVTISCSGGNSNIGISYVYWYQHLPGTAPKLLISKNNLRPSGVPDRFSASKSGTSASLAISGLRSEDEAEYYCATLDINMTWVFGGGTKLTVL | – | 70 nM | 10 nM | 18 nM | 14 nM | – | –
9 | NORO-279A (antibody, V domains shown) VH: QVQLVESGGGVVQPGRSLRLSCAASGFTFTKYGMHWVRQAPGKGLEWVAFIAYDGSVKYYGDSAKGRFAISRDNPKNTVYLQMNSLRAEDTAVYYCAKVEIHYYSNSLLGMDVWGQGTLVTVSS VL: QSVLTQPPSASGTPGQRVTISCSGGNSNIGISYVYWYQHLPGTAPKLLISKNNLRPSGVPDRFSASKSGTSASLAISGLRSEDEAEYYCATLDINMTWVFGGGTKLTVL | – | – | – | – | – | 3 nM | EC50 [4]: 0.4 µg/mL; EC50 [5]: > 100 µg/mL; EC50 (GII.6 (AF414410) VLPs [6]): 14 nM; EC50 [7]: 0.3 µg/mL; EC50 (GII.6 (AF414410) VLPs [9]): 32 nM
10 | 232 (antibody, V domains shown) VH: QVQLKQWGAGLLKSSETLSLTCAFNGNSFGAFYWSWIRLSPGKGLEWIGEVNYLGGADYNPSLKSRVTMSADTSKRQFSLSLKSVTAADTGVYFCARGRPHDYSPGSYSRPRRYYGLDVWGQGTTVTVSS VL: EIVLTQSPATLSLSPGDSATLSCRASQAVSTTYLAWYQQTRGQAPRLLIHGTYTRAIGIPDKFSGTGSGTDFTLTISGLAPEDFAVYYCQQYSSSPYTFGQGTKIEIT | – | – | – | – | – | – | EC50 (GII.4 Sydney 2012 VLP): 4.4 µg/mL
11 | 327A (antibody, V domains shown) VH: QVQLEVSGGGLVKPGGSLRLSCAASGFTFTDYYMSWIRQAPGKGLEWVAYISGIMSSTKYADSVKGRFTISRDNGKNSVYLQMNSLTAEDTAVYYCARERVEPPSAVTDFWGQGTLVTVSS VL: QSVLTQSPSVSGAPGQRVTISCTGTSSNIGAGYDVHWYQQFPGTAPKLLISHNTNRPSGVPDRFSGSKSGTSASLAITGLQAEDEADYYCQSFDSSLRGSRVFGGGTKLTVL | – | – | – | – | – | – | EC50 (Protruding domain): 0.5 µg/mL; EC50 (GII.4 Sydney 2012 VLP): 5 µg/mL; EC50 (GII.4 Houston 2002 VLP [10]): 0.3 µg/mL; EC50 (GII.4 Houston 2002 VLP [3]): 2.2 µg/mL
12 | NORO-202A.1 (antibody, V domains shown) VH: QVQLVQSGAEVKKPGASVKVSCKASEYTFTGYYLQWVRQAPGHGLEWMGWINPSGGTKYSQKFQGRVTMTRDTSITTVYMELSRLRSDDTAVYYCARDLLRNWGDHDAFDVWGQGTMVTVSS VL: QSVLTQPPSASETPGQGVTISCSGSSSNIGSNFVCWYQQVPGTAPKLLIYKNNQRPSGVPDRFSGSKSGTSASLAISGLRSEDEADYYCSAWDDSLSGPVFGGGTKLTVL | – | – | – | – | – | 3 nM | EC50 [4]: 0.2 µg/mL; EC50 [5]: > 100 µg/mL; EC50 [7]: 0.1 µg/mL; EC50 (GII.6 (AF414410) VLPs [9]): 47 nM
13 | 202A.1 (antibody, V domains shown) VH: QVQLVQSGAEVKKPGASVKVSCKASEYTFTGYYLQWVRQAPGHGLEWMGWINPSGGTKYSQKFQGRVTMTRDTSITTVYMELSRLRSDDTAVYYCARDLLRNWGDHDAFDVWGQGTMVTVSS VL: QSVLTQPPSASETPGQGVTISCSGSSSNIGSNFVCWYQQVPGTAPKLLIYKNNQRPSGVPDRFSGSKSGTSASLAISGLRSEDEADYYCSAWDDSLSGPVFGGGTKLTVL | – | – | 4 nM | – | 41 nM | – | –
